Literature values, collected in article PMC3423339.

Biological target: Alk1 (Homo sapiens) (UniProt P37023)
Sequence of UniProt P37023 (P37023 22-118): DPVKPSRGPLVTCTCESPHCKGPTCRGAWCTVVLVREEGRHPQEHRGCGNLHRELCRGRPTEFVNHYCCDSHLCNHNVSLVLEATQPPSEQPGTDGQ

Kd: 1 pM
Substance: BMP9 (from UniProt Q9UK05)
